Data taken from PMC3315512.

Target: CeHsc70-Δ512 (lidless CeHsc70) (C. elegans), P09446
Sequence (P09446 1-512, stated change not applied): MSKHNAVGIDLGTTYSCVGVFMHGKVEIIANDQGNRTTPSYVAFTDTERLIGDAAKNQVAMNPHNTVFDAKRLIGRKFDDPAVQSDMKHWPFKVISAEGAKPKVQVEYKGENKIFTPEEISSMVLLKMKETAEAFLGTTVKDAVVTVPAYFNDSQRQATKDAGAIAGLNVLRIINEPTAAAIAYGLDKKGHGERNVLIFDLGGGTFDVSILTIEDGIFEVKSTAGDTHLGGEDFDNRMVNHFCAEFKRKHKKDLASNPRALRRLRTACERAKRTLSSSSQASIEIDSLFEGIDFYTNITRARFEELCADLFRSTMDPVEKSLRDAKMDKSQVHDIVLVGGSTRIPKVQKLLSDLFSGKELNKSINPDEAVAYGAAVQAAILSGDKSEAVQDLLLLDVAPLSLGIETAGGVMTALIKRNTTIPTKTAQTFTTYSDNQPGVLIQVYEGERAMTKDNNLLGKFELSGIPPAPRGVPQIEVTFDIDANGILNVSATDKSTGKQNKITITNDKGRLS

apparent KD of BAG-1 from titration of the steady-state ATPase activity, standard buffer, 25°C: 6.5 µM
B1: BAG-1 (C. elegans, unlabelled), O44739 1-210 (natural protein)
chain: MKVNVSCSSVQTTIDILEENQGEDESILTLGQLRDRIATDNDVDVETMKLLHRGKFLQGADDVSLSTLNFKENDKIIVMGGKNALVDDAGFKMLMQYEKHNLSNLQKAYDLNLRDVADLERGFLEKPKQVEMGKKLEKKVKYFNEEAERHLETLDGMNIITETTPENQAKRNREKRKTLVNGIQTLLNQNDALLRRLQEYQSVLNGDIPE
